Results as given in PMC4212957, “The serodominant secreted effector protein of Salmonella, SseB, is a strong CD4 antigen containing an immunodominant epitope presented by diverse HLA class II alleles” (Immunology, 2014).
Residues, ends and D or L forms follow the SMILES beside them.

Key:
HLA-DRB1*04:01 = HLA-DRB1*04:01 (Homo sapiens, UniProt P01903+P01911, A100K/A169T/F76Y/I96L/K127E/L162R/M171V/N62H/P40V/Q125Y/R42H/S133A/S149N/S66Y/V115G/V209L/W38E); conditions: competitive ELISA; ratio IC50 of peptide / IC50 of reference peptide HA 306–318; lower = higher affinity; ratio 20 or less high, 20–100 moderate; three independent experiments
HLA-DRB1*12:02 = HLA-DRB1*12:02 (Homo sapiens, UniProt P01903+P01911, A100R/A169T/D57E/D86V/F55L/H45Y/I96F/K41T/L162R/M171V/P40S/Q125H/Q178H/Q39Y/Q99D/R42G/S66L/T262R/V114A/V67L/W38E/Y59H/Y61H/Y89S); assay: Peptide/HLA-DR binding, competitive ELISA; conditions: for Relative binding affinity of peptide to HLA-DR molecules DRB1*1202: ratio IC50 of peptide / IC50 of reference peptide TFR 141–155, lower = higher affinity, ratio 20 or less high, 20–100 moderate, three independent experiments
Method: (§1) HLA-DR heterodimers were purified from homozygous Epstein–Barr virus B-lymphoblastoid cell lines (HPA Culture Collections, Salisbury, UK) by affinity chromatography with the monomorphic HLA-DRα monoclonal antibody, L243.[29],[30] Binding of the SseB peptide panel to the HLA-DR molecules HLA-DRB1*01:01, 03:01, 04:01, 07:01, 09:01, 11:01, 12:02, 15:01, 15:02 was assessed by competitive ELISA, as previously described, using an automated workstation.[29],[30] We evaluated the peptide concentration able to prevent binding of 50% of the labelled peptide (IC50). Data were expressed as relative affinity: ratio of the IC50 of the peptide to the IC50 of the reference peptide, which is a high binder to the HLA class II molecule. Unlabelled forms of the biotinylated peptides were used as reference peptides.

HLA-DRB1*09:01 = target: T1, HLA-DRB1*09:01 (Homo sapiens, UniProt P01903+P01911, A100R/A103E/D57H/D86V/F55Y/F60I/F76Y/I96F/K127E/L162R/M171V/P40D/Q125H/Q99R/R33Q/R42F/S133A/S66N/T210M/V115G/W38K/Y107V/Y59G/Y89S); assay: Peptide/HLA-DR binding, competitive ELISA; conditions: for Relative binding affinity of peptide to HLA-DR molecules DRB1*0901: ratio IC50 of peptide / IC50 of reference peptide CTP 427–441, lower = higher affinity, ratio 20 or less high, 20–100 moderate, three independent experiments
T1 construct: HLA-DR heterodimers were purified from homozygous Epstein–Barr virus B-lymphoblastoid cell lines; host or cells: homozygous EBV B-lymphoblastoid cell line
Method: as §1

HLA-DRB1*15:01 = target: T2, HLA-DRB1*15:01 (Homo sapiens, UniProt P01903+P01911); assay: Peptide/HLA-DR binding, competitive ELISA; conditions: for Relative binding affinity of peptide to HLA-DR molecules DRB1*1501: ratio IC50 of peptide / IC50 of reference peptide A3 152–166, lower = higher affinity, ratio 20 or less high, 20–100 moderate, three independent experiments
T2 construct: HLA-DR heterodimers were purified from homozygous Epstein–Barr virus B-lymphoblastoid cell lines; host or cells: homozygous EBV B-lymphoblastoid cell line
Method: as §1

HLA-DRB1*03:01 = target: T3, HLA-DRB1*03:01 (Homo sapiens, UniProt P01903+P01911, A100K/A102G/A103R/A169T/F55Y/I96L/K41T/L162R/M171V/P40S/Q125H/Q178H/Q39Y/R42S/S66N/T106N/T262R/W38E/Y61H); assay: Peptide/HLA-DR binding, competitive ELISA; conditions: ratio IC50 of peptide / IC50 of reference peptide MT2-16, lower = higher affinity, ratio 20 or less high, 20–100 moderate, three independent experiments
T3 construct: HLA-DR heterodimers were purified from homozygous Epstein–Barr virus B-lymphoblastoid cell lines; host or cells: homozygous EBV B-lymphoblastoid cell line
Method: as §1

HLA-DRB1*15:02 = target: T4, HLA-DRB1*15:02 (Homo sapiens, UniProt P01903+P01911, V115G); assay: Peptide/HLA-DR binding, competitive ELISA; conditions: for Relative binding affinity of peptide to HLA-DR molecules DRB1*1502: ratio IC50 of peptide / IC50 of reference peptide TFR 607–620, lower = higher affinity, ratio 20 or less high, 20–100 moderate, three independent experiments
T4 construct: HLA-DR heterodimers were purified from homozygous Epstein–Barr virus B-lymphoblastoid cell lines; host or cells: homozygous EBV B-lymphoblastoid cell line
Method: as §1

HLA-DRB1*07:01 = HLA-DRB1*07:01 (Homo sapiens, UniProt P01903+P01911, A100R/A102G/A103Q/D57E/D86V/E43K/F76Y/K127E/L162R/M171V/P40G/Q125H/Q99D/R33Q/R42Y/R54Q/S133A/S66F/T210M/V115G/Y107V/Y59L/Y89S); conditions: competitive ELISA; ratio IC50 of peptide / IC50 of reference peptide HA 306–318; lower = higher affinity; ratio 20 or less high, 20–100 moderate; three independent experiments
HLA-DRB1*01:01 = HLA-DRB1*01:01 (Homo sapiens, UniProt P01903+P01911, A100R/D57E/F55L/F60I/F76Y/I96L/L162R/M171V/P40L/Q125E/R42F/V115G/Y59C); conditions: competitive ELISA; ratio IC50 of peptide / IC50 of reference peptide HA 306–318; lower = higher affinity; ratio 20 or less high, 20–100 moderate; three independent experiments
HLA-DRB1*11:01 = HLA-DRB1*11:01 (Homo sapiens, UniProt P01903+P01911, A100R/A169T/A87E/I96F/K41T/L162R/M171V/P40S/Q125H/Q178H/Q39Y/Q99D/R42S/S66Y/T262R/V115G/W38E); conditions: competitive ELISA; ratio IC50 of peptide / IC50 of reference peptide HA 306–318; lower = higher affinity; ratio 20 or less high, 20–100 moderate; three independent experiments

Molecule	Relative binding affinity of peptide to HLA-DR molecules DRB1*0401 (HLA-DRB1*04:01)	Relative binding affinity of peptide to HLA-DR molecules DRB1*1202 (HLA-DRB1*12:02)	Relative binding affinity of peptide to HLA-DR molecules DRB1*0901 (HLA-DRB1*09:01)	Relative binding affinity of peptide to HLA-DR molecules DRB1*1501 (HLA-DRB1*15:01)	Relative binding affinity of peptide to HLA-DR molecules DRB1*0301 (HLA-DRB1*03:01)	Relative binding affinity of peptide to HLA-DR molecules DRB1*1502 (HLA-DRB1*15:02)	Relative binding affinity of peptide to HLA-DR molecules DRB1*0701 (HLA-DRB1*07:01)	Relative binding affinity of peptide to HLA-DR molecules DRB1*0101 (HLA-DRB1*01:01)	Relative binding affinity of peptide to HLA-DR molecules DRB1*1101 (HLA-DRB1*11:01)	IC50 (HLA-DRB1*15:02; DRB1*15:02, unlabelled form of the biotinylated peptide, read-out: IC50 of reference peptide) [nM]	IC50 (HLA-DRB1*12:02; DRB1*1202, unlabelled form of the biotinylated peptide, read-out: IC50 of reference peptide) [nM]	IC50 (HLA-DRB1*09:01; DRB1*0901, unlabelled form of the biotinylated peptide, read-out: IC50 of reference peptide) [nM]	IC50 (HLA-DRB1*15:01; DRB1*15:01, unlabelled form of the biotinylated peptide, read-out: IC50 of reference peptide) [nM]
5: SseB overlapping library peptide, residues 41–60 (EGYGVLLILLMVIQAIANNK) [Peptide 5]	> 145	> 136	> 689	> 270	> 119	> 3 333	> 336	> 4149	> 278	–	–	–	–
9: SseB overlapping library peptide, residues 81–100 (MDEVIAKAAKGDAKTKEEVP) [Peptide 9]	> 145	> 136	626	200	41	> 3 333	> 336	1508	8	–	–	–	–
17: SseB overlapping library peptide, residues 161–180 (TIQKMSQELNAVLTQLTGLI) [Peptide 17]	> 145	> 136	> 689	> 270	> 119	> 3 333	8	18	> 278	–	–	–	–
CC(C)C[C@H](NC(=O)[C@H](CC(C)C)NC(=O)[C@H](CCC(N)=O)NC(=O)[C@H](CO)NC(=O)[C@H](CC(N)=O)NC(=O)[C@H](Cc1ccc(O)cc1)NC(=O)[C@H](CCCNC(=N)N)NC(=O)[C@H](CCC(=O)O)NC(=O)[C@H](Cc1ccc(O)cc1)NC(=O)[C@H](CC(=O)O)NC(=O)[C@H](CC(C)C)NC(=O)[C@H](CC(N)=O)NC(=O)[C@@H](N)CC(C)C)C(=O)N[C@@H](CO)C(=O)O [TFR 607–620, reference compound] (H-LNLDYERYNSQLLS-OH)	–	–	–	–	–	–	–	–	–	3	–	–	–
13: SseB overlapping library peptide, residues 121–140 (DYMAKYGDHGKLDKGGLQAI) [Peptide 13]	> 145	> 136	> 689	12	> 119	2 000	> 336	2958	> 278	–	–	–	–
4: SseB overlapping library peptide, residues 31–50 (DDLSQQNPFAEGYGVLLILL) [Peptide 4]	> 145	> 136	28	10	> 119	55	6	22	–	–	–	–	–
7: SseB overlapping library peptide, residues 61–80 (FIEVQKNAERARNTQEKSNE) [Peptide 7]	109	> 136	> 689	211	89	> 3 333	> 336	–	> 278	–	–	–	–
CC[C@H](C)[C@H](NC(=O)[C@@H](NC(=O)CNC(=O)[C@@H](N)[C@@H](C)O)[C@@H](C)O)C(=O)N[C@@H](CCCCN)C(=O)N[C@@H](CC(C)C)C(=O)N[C@@H](CC(C)C)C(=O)N[C@@H](CC(N)=O)C(=O)N[C@@H](CCC(=O)O)C(=O)N[C@@H](CC(N)=O)C(=O)N[C@@H](CO)C(=O)N[C@@H](Cc1ccc(O)cc1)C(=O)N[C@H](C(=O)N1CCC[C@H]1C(=O)N[C@@H](CCCNC(=N)N)C(=O)O)C(C)C [TFR 141–155, reference compound] (H-TGTIKLLNENSYVPR-OH)	–	–	–	–	–	–	–	–	–	–	73	–	–
CC[C@H](C)[C@H](NC(=O)[C@H](CCCNC(=N)N)NC(=O)[C@H](CO)NC(=O)[C@@H](NC(=O)[C@H](C)NC(=O)[C@@H]1CCCN1C(=O)[C@H](CC(N)=O)NC(=O)[C@H](Cc1ccc(O)cc1)NC(=O)[C@H](Cc1ccccc1)NC(=O)CNC(=O)[C@H](Cc1c[nH]cn1)NC(=O)[C@@H](N)C(C)C)C(C)C)C(=O)N[C@H](C(=O)N[C@@H](CCC(=O)O)C(=O)N[C@@H](C)C(=O)O)C(C)C [CTP 427–441, reference compound] (H-VHGFYNPAVSRIVEA-OH)	–	–	–	–	–	–	–	–	–	–	–	15	–
3: SseB overlapping library peptide, residues 21–40 (GVSNADTGSQDDLSQQNPFA) [Peptide 3]	> 145	> 136	> 689	> 270	> 119	> 3 333	> 336	> 4149	–	–	–	–	–
CC(C)C[C@H](NC(=O)[C@H](Cc1ccc(O)cc1)NC(=O)[C@H](C)NC(=O)[C@H](CCCNC(=N)N)NC(=O)[C@H](CC(C)C)NC(=O)[C@H](CCC(N)=O)NC(=O)[C@H](CCC(=O)O)NC(=O)[C@H](C)NC(=O)[C@@H](N)CCC(=O)O)C(=O)N[C@@H](CC(=O)O)C(=O)NCC(=O)N[C@H](C(=O)NCC(=O)N[C@H](C(=O)N[C@@H](CCC(=O)O)C(=O)O)C(C)C)[C@@H](C)O [A3 152–166, reference compound]	–	–	–	–	–	–	–	–	–	–	–	–	37
